B1: Zinc finger HIT domain-containing protein 1 (Homo sapiens), O43257 (parent)
chain: MVEKKTSVRSQDPGQRRVLDRAARQRRINRQLEALENDNFQDDPHAGLPQLGKRLPQFDDDADTGKKKKKTRGDHFKLRFRKNFQALLEEQNLSVAEGPNYLTACAGPPSRPQRPFCAVCGFPSPYTCVSCGARYCTVRCLGTHQETRCLKWTV

Variants of: B1
Details: with mk14_human MAPK14, Q16539
Sequence of mk14_human MAPK14, Q16539 (Q16539 whole entry): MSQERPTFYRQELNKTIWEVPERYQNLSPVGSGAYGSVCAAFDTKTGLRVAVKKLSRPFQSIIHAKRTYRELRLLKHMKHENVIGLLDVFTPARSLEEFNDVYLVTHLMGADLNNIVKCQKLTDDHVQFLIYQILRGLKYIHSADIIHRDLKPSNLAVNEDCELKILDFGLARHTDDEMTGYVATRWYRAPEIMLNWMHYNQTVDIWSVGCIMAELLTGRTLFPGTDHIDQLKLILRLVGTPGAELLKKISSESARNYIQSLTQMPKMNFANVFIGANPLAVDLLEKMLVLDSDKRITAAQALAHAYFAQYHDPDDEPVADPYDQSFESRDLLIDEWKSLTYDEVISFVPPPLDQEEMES

Row | effect of a mutation on the interaction | Variant
1 | disrupting interaction | MVEKKTSVRSQDPGQRRVLDRAARQRRINRQLEALENDNFQDDPHAGLPQLGKRLPQFDDDADTGKKKKKTRGDHFKLRFRKNFQALLEEQNLSVAEGPNYLAACAGPPSRPQRPFCAVCGFPSPYTCVSCGARYCTVRCLGTHQETRCLKWTV

— IntAct's records for PubMed 17380123
